The values that follow come from patent US20110142842A1, “POLYPEPTIDES” (Medinnova AS, priority 2007, published 2011).

The target in the assay is HLA-A*0201 (human), A*02:0. Nature of the assay: REVEAL MHC binding assay (ProImmune).

B1: Peptide ID 131 … (TCR_TV, modified peptide) (peptide)
peptide: FLYGVILTV
modifications: not checked
Molecule B1 registered a % Pass/fail control (% of pass/fail control) of 257.
